How the values were obtained:
[1] = system: 43-mer covering the stalk region of CD95L (residue 103 to residue 145)
[2] = system: Recombinant Ig-CD95L
Recombinant Ig-CD95L, sequence (chain, as listed by the source): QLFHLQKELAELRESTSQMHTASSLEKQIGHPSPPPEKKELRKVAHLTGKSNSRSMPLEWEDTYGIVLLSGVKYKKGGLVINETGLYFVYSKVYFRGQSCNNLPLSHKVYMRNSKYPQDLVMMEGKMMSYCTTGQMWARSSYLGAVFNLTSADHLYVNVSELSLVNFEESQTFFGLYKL

MMP3, sequence (chain, as listed by the source): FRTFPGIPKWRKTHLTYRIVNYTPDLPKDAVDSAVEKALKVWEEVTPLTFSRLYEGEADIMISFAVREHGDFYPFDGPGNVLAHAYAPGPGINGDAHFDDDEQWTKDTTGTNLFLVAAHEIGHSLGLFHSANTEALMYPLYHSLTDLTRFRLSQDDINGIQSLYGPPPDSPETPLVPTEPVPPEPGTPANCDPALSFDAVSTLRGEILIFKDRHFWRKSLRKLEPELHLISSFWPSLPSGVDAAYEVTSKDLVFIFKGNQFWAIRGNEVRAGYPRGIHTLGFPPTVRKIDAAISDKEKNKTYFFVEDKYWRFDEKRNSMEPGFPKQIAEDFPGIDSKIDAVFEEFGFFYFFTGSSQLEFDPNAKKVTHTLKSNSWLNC
43-mer covering the stalk region of CD95L (residue 103 to residue 145), sequence (chain, as listed by the source): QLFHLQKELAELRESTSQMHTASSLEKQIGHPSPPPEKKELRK

Substance: MMP3
- percentage of degradation of the 43-mer (LC-MS/MS) [1]: more of 20% of cleavage
- cleavage of Ig-CD95L (western blotting) [2]: Using this Ig-CD95L, we showed that MMP2 and MMP3 can cleave CD95L

From patent publication US20250163169
